Patent US9260500B2, “Peptide and use thereof” (Takeda Pharmaceutical Company Limited, priority 2009, dated 2016)
Starred links: 1 amine or outer side, 2 acyl side, 3 side chain; linkers in the order of their positions; H or OH if unused. Non-standard residues stand in square brackets, D forms with d. *: point of attachment. X4 = ((1S)-1-Carboxy-3-methylbutyl)carbamoyl, CC(C)C[C@H](NC(=O)*)C(=O)O; Ala(piperidin-4-yl) = O=C([C@H](CC1CCN([*:3])CC1)N[*:1])[*:2]; Phe(2,6-Me2) = Cc1cccc(C)c1C[C@H](N)C(=O)O; Imidazole4carbonyl = O=C(c1cnc[nH]1)*; morpholinocarbonyl = O=C(N1CCOCC1)*; 4Pal = N[C@@H](Cc1ccncc1)C(=O)O; Cha = N[C@@H](CC1CCCCC1)C(=O)O; Suc = O=C(CCC(=O)[*:2])[*:1]; dIva = CC[C@@](C)(N)C(=O)O; Iva = CC[C@](C)(N)C(=O)O; Aib = CC(C)(N)C(=O)O

Key:
[1] = biological target: T1, human Y2 receptor (Homo sapiens, UniProt P49146); experiment: Human Y2 Receptor G Protein Binding Assay (GBA), [35S]GTPγS; type: biochemical; conditions: EC50 of test compound/EC50 of PYY(3-36) (PYY3-36 taken as 1), hY2R/CHO membrane fraction
T1 construct: expressed in transfected cells; membrane fraction
T1 sequence (P49146 1-381): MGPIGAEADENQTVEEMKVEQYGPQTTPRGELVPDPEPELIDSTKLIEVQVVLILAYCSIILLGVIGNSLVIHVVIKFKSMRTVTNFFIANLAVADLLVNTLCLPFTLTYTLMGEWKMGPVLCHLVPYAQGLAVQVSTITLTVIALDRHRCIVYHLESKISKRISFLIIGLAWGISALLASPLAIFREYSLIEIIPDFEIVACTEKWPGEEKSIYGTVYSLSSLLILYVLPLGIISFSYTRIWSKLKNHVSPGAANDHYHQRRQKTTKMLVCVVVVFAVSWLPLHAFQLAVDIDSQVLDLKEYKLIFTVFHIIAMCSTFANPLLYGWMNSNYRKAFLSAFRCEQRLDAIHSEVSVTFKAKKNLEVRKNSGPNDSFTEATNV
Procedure, shortened: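 Agonism measured as [35S]GTPγS binding, read by GF/C filtration and scintillation counting after 120 min at room temperature, using human Y2 membranes at 1 μg protein/mL in pH 7.4 Tris/MgCl2/NaCl/GDP buffer. Compound serially diluted 100 μM–1 nM; EC50 normalized to PYY(3-36) (ratio = compound/PYY).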

[2] = test system: male C57EL/6J mice; experiment: 3-Days Continuous Subcutaneous Administration Test-1 (food intake suppressing activity); type: in vivo, mouse; conditions: 0.03 mg/kg/day, subcutaneous Alzet pump, food consumption over 3 days; relative to food intake suppression rate for PYY(3-36) (1 mg/kg/day) taken as 100%
Procedure, shortened: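 Male […] mice, 12-13 weeks, received compound at 0.03 mg/kg/day by subcutaneous osmotic pump (50% DMSO vehicle), housed singly with free food access. Food consumed over 3 days measured; suppression expressed relative to PYY(3-36) (1 mg/kg/day) set as 100%.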

[3] = biological target: T1, human Y2 receptor; experiment: Receptor Binding Assay (RBA) for Human Y2, [125I]-PYY displacement on hY2R/CHO membrane fraction; conditions: IC50 of test compound/IC50 of PYY(3-36) (PYY(3-36) taken as 1)
Procedure, shortened: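 Read-out is [125I]-PYY displacement from membranes of CHO/dhfr− cells stably transfected with human Y2R. Membranes were obtained by disrupting cells in a buffer of 10 mM NaHCO3, 5 mM EDTA and protease inhibitors.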

## 4-Imidazolecarbonyl-[D-Pro24, Iva25, Pya(4)26, Cha27,30,36, Aib28,31]-PYY(23-36) (Imidazole4carbonyl-S[dP][Iva][4Pal][Cha][Aib]N[Cha][Aib]TRQR[Cha]-NH2; SMILES CC[C@](C)(NC(=O)[C@H]1CCCN1C(=O)[C@H](CO)NC(=O)c1cnc[nH]1)C(=O)N[C@@H](Cc1ccncc1)C(=O)N[C@@H](CC1CCCCC1)C(=O)NC(C)(C)C(=O)N[C@@H](CC(N)=O)C(=O)N[C@@H](CC1CCCCC1)C(=O)NC(C)(C)C(=O)N[C@H](C(=O)N[C@@H](CCCNC(=N)N)C(=O)N[C@@H](CCC(N)=O)C(=O)N[C@@H](CCCNC(=N)N)C(=O)N[C@@H](CC1CCCCC1)C(N)=O)[C@@H](C)O) [compound No. 318]
[1]
  GBA EC50 Ratio: 1.9
[2]
  food intake suppression rate (%): 18%
[3]
  RBA IC50 Ratio: 2.3

## Morpholinocarbonyl-[D-Pro24, Pya(4)26, Cha27,36, Aib28,31, Lys30]-PYY(23-36) (morpholinocarbonyl-S[dP]R[4Pal][Cha][Aib]NK[Aib]TRQR[Cha]-NH2; SMILES C[C@@H](O)[C@H](NC(=O)C(C)(C)NC(=O)[C@H](CCCCN)NC(=O)[C@H](CC(N)=O)NC(=O)C(C)(C)NC(=O)[C@H](CC1CCCCC1)NC(=O)[C@H](Cc1ccncc1)NC(=O)[C@H](CCCNC(=N)N)NC(=O)[C@H]1CCCN1C(=O)[C@H](CO)NC(=O)N1CCOCC1)C(=O)N[C@@H](CCCNC(=N)N)C(=O)N[C@@H](CCC(N)=O)C(=O)N[C@@H](CCCNC(=N)N)C(=O)N[C@@H](CC1CCCCC1)C(N)=O) [compound No. 268]
[1]
  GBA EC50 Ratio: 0.57
[2]
  food intake suppression rate (%): 16%
[3]
  RBA IC50 Ratio: 0.89

## 3-Carboxypropionyl-[D-Pro24, Pya(4)26, Cha27,36, Aib28,31, Lys30]-PYY(24-36) (Suc-[dP]R[4Pal][Cha][Aib]NK[Aib]TRQR[Cha]-NH2; SMILES C[C@@H](O)[C@H](NC(=O)C(C)(C)NC(=O)[C@H](CCCCN)NC(=O)[C@H](CC(N)=O)NC(=O)C(C)(C)NC(=O)[C@H](CC1CCCCC1)NC(=O)[C@H](Cc1ccncc1)NC(=O)[C@H](CCCNC(=N)N)NC(=O)[C@H]1CCCN1C(=O)CCC(=O)O)C(=O)N[C@@H](CCCNC(=N)N)C(=O)N[C@@H](CCC(N)=O)C(=O)N[C@@H](CCCNC(=N)N)C(=O)N[C@@H](CC1CCCCC1)C(N)=O) [compound No. 303]
[1]
  GBA EC50 Ratio: 1.2
[2]
  food intake suppression rate (%): 20%
[3]
  RBA IC50 Ratio: 1.2

## Ac-[Iva24, Pya(4)26, Cha27,36, Aib28,31, Lys30]-PYY(23-36) (Ac-S[Iva]R[4Pal][Cha][Aib]NK[Aib]TRQR[Cha]-NH2; SMILES CC[C@](C)(NC(=O)[C@H](CO)NC(C)=O)C(=O)N[C@@H](CCCNC(=N)N)C(=O)N[C@@H](Cc1ccncc1)C(=O)N[C@@H](CC1CCCCC1)C(=O)NC(C)(C)C(=O)N[C@@H](CC(N)=O)C(=O)N[C@@H](CCCCN)C(=O)NC(C)(C)C(=O)N[C@H](C(=O)N[C@@H](CCCNC(=N)N)C(=O)N[C@@H](CCC(N)=O)C(=O)N[C@@H](CCCNC(=N)N)C(=O)N[C@@H](CC1CCCCC1)C(N)=O)[C@@H](C)O) [compound No. 241]
[1]
  GBA EC50 Ratio: 0.91
[2]
  food intake suppression rate (%): 16%
[3]
  RBA IC50 Ratio: 0.58

## 4-Imidazolecarbonyl-[D-Pro24, Iva25, Pya(4)26, Cha27,36, Aib28,31, Lys30]-PYY(23-36) (Imidazole4carbonyl-S[dP][Iva][4Pal][Cha][Aib]NK[Aib]TRQR[Cha]-NH2; SMILES CC[C@](C)(NC(=O)[C@H]1CCCN1C(=O)[C@H](CO)NC(=O)c1cnc[nH]1)C(=O)N[C@@H](Cc1ccncc1)C(=O)N[C@@H](CC1CCCCC1)C(=O)NC(C)(C)C(=O)N[C@@H](CC(N)=O)C(=O)N[C@@H](CCCCN)C(=O)NC(C)(C)C(=O)N[C@H](C(=O)N[C@@H](CCCNC(=N)N)C(=O)N[C@@H](CCC(N)=O)C(=O)N[C@@H](CCCNC(=N)N)C(=O)N[C@@H](CC1CCCCC1)C(N)=O)[C@@H](C)O) [compound No. 300]
[1]
  GBA EC50 Ratio: 0.91
[2]
  food intake suppression rate (%): 35%
[3]
  RBA IC50 Ratio: 0.77

## Ac-[Aib24,28,31, Pya(4)26, Cha27,36, Lys30]-PYY(23-36) (Ac-S[Aib]R[4Pal][Cha][Aib]NK[Aib]TRQR[Cha]-NH2; SMILES CC(=O)N[C@@H](CO)C(=O)NC(C)(C)C(=O)N[C@@H](CCCNC(=N)N)C(=O)N[C@@H](Cc1ccncc1)C(=O)N[C@@H](CC1CCCCC1)C(=O)NC(C)(C)C(=O)N[C@@H](CC(N)=O)C(=O)N[C@@H](CCCCN)C(=O)NC(C)(C)C(=O)N[C@H](C(=O)N[C@@H](CCCNC(=N)N)C(=O)N[C@@H](CCC(N)=O)C(=O)N[C@@H](CCCNC(=N)N)C(=O)N[C@@H](CC1CCCCC1)C(N)=O)[C@@H](C)O) [compound No. 240]
[1]
  GBA EC50 Ratio: 1.1
[2]
  food intake suppression rate (%): 36%
[3]
  RBA IC50 Ratio: 0.81

## Ac-[D-Pro24, Pya(4)26, Cha27, Aib28,31, Lys30, Phe(2,6-Me2)36]-PYY(23-36) (Ac-S[dP]R[4Pal][Cha][Aib]NK[Aib]TRQR[Phe(2,6-Me2)]-NH2; SMILES CC(=O)N[C@@H](CO)C(=O)N1CCC[C@@H]1C(=O)N[C@@H](CCCNC(=N)N)C(=O)N[C@@H](Cc1ccncc1)C(=O)N[C@@H](CC1CCCCC1)C(=O)NC(C)(C)C(=O)N[C@@H](CC(N)=O)C(=O)N[C@@H](CCCCN)C(=O)NC(C)(C)C(=O)N[C@H](C(=O)N[C@@H](CCCNC(=N)N)C(=O)N[C@@H](CCC(N)=O)C(=O)N[C@@H](CCCNC(=N)N)C(=O)N[C@@H](Cc1c(C)cccc1C)C(N)=O)[C@@H](C)O) [compound No. 329]
[1]
  GBA EC50 Ratio: 0.59
[2]
  food intake suppression rate (%): 51%
[3]
  RBA IC50 Ratio: 0.52

## [(1S)-1-Carboxy-3-methylbutyl]carbamoyl-[D-Pro24, Pya(4)26, Cha27,36, Aib28,31, Lys30]-PYY(23-36) (X4-S[dP]R[4Pal][Cha][Aib]NK[Aib]TRQR[Cha]-NH2; SMILES CC(C)C[C@H](NC(=O)N[C@@H](CO)C(=O)N1CCC[C@@H]1C(=O)N[C@@H](CCCNC(=N)N)C(=O)N[C@@H](Cc1ccncc1)C(=O)N[C@@H](CC1CCCCC1)C(=O)NC(C)(C)C(=O)N[C@@H](CC(N)=O)C(=O)N[C@@H](CCCCN)C(=O)NC(C)(C)C(=O)N[C@H](C(=O)N[C@@H](CCCNC(=N)N)C(=O)N[C@@H](CCC(N)=O)C(=O)N[C@@H](CCCNC(=N)N)C(=O)N[C@@H](CC1CCCCC1)C(N)=O)[C@@H](C)O)C(=O)O) [compound No. 271]
[1]
  GBA EC50 Ratio: 0.82
[2]
  food intake suppression rate (%): 28%
[3]
  RBA IC50 Ratio: 0.82

## Ac-[D-Pro24, Pya(4)26, Cha27,36, Aib28,31, Ala(4-pip)30]-PYY(23-36) (Ac-S[dP]R[4Pal][Cha][Aib]N[Ala(piperidin-4-yl)][Aib]TRQR[Cha]-NH2; SMILES CC(=O)N[C@@H](CO)C(=O)N1CCC[C@@H]1C(=O)N[C@@H](CCCNC(=N)N)C(=O)N[C@@H](Cc1ccncc1)C(=O)N[C@@H](CC1CCCCC1)C(=O)NC(C)(C)C(=O)N[C@@H](CC(N)=O)C(=O)N[C@@H](CC1CCNCC1)C(=O)NC(C)(C)C(=O)N[C@H](C(=O)N[C@@H](CCCNC(=N)N)C(=O)N[C@@H](CCC(N)=O)C(=O)N[C@@H](CCCNC(=N)N)C(=O)N[C@@H](CC1CCCCC1)C(N)=O)[C@@H](C)O) [compound No. 313]
[1]
  GBA EC50 Ratio: 0.8
[2]
  food intake suppression rate (%): 23%
[3]
  RBA IC50 Ratio: 0.72

## Ac-[D-Pro24, Pya(4)26, Cha27,36, Aib28, Lys30, D-Iva31]-PYY(23-36) (Ac-S[dP]R[4Pal][Cha][Aib]NK[dIva]TRQR[Cha]-NH2; SMILES CC[C@@](C)(NC(=O)[C@H](CCCCN)NC(=O)[C@H](CC(N)=O)NC(=O)C(C)(C)NC(=O)[C@H](CC1CCCCC1)NC(=O)[C@H](Cc1ccncc1)NC(=O)[C@H](CCCNC(=N)N)NC(=O)[C@H]1CCCN1C(=O)[C@H](CO)NC(C)=O)C(=O)N[C@H](C(=O)N[C@@H](CCCNC(=N)N)C(=O)N[C@@H](CCC(N)=O)C(=O)N[C@@H](CCCNC(=N)N)C(=O)N[C@@H](CC1CCCCC1)C(N)=O)[C@@H](C)O) [compound No. 232]
[1]
  GBA EC50 Ratio: 1.6
[2]
  food intake suppression rate (%): 34%
[3]
  RBA IC50 Ratio: 0.55
